Experiment: yeast display, Sf9 membrane polyspecificity reagent, FACS + sequencing; frameworks hold sequencing errors
In short: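 After 36–48 hours of galactose induction, yeast (Saccharomyces cerevisiae BJ5465) displaying a synthetic nanobody library were stained at 4 °C for 1 hour with 10% biotinylated, detergent-solubilized Sf9 membrane reagent. Streptavidin microbeads enriched the stained cells before FACS sorting into low and high (top ~1%) gates on anti-HA and streptavidin fluorescence. Each clone's polyreactivity label reflects its gate of origin.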

Row | Sequence | polyreactivity (PSR sort gate)
1 | QVQLVESGGGLVQSGGSLRLSCAASGITFDHYAMGWYRQAPGKERELVAAISVSGGRTYYADSVKGRFTISRDNAKNTVYLQMNSLKPEDTAVYYCAKVSQVRGFYYWGQGTQVTVSS | high polyreactivity
2 | QVQLVESGGGLVQSGGSLRLSCAASGITLRRNAMVWYRQAPGKERELVASISSRGGTTYYADSVKGRFTISRDNAKNTDYLQMISQKPEDTAVYYCAAYRVQRLANTGYDYWGQGTQVTVSS | high polyreactivity
3 | QVQLVESGGGLVQSGGSLRLSCAASGLTFKENVMGWYRQAPGKERELVAAISTGASTYYADSVKGRFTISRDNAKNTVYLQMNSLKPEDTAVYYCAKRVTRWYGYWGQGTQVTVSS | high polyreactivity
4 | QVQLVESGGGLVQSGGSLRLSCAASGLTFMVYAMGWYRQAPGKEREFVAAITFSGGRTYYADSVKGRFTISRDNAKNTVYLQMNSLKPEDTAVYYCNAEAWSLGYDYWGQGTQVTVSS | low polyreactivity
5 | QVQLVESGGGLVQSGGSLRLSCAASGRIFDYNAMGWYRQAPGKERELVAAINSGGSTYADSVKGRFTISRDNAKNTVYLQMNSLKPEDTAVYYCNATPQFATFTYDYCGQGTQVTVSS | low polyreactivity
6 | QVQLVESGGGLVQSGGSLRLSCAASGRIFNIYAMGWYRPAPGKERELVAAISGSGGRTSYADSVKGRFTISRDNAKNTVYLQMNSLKPEDTAVYYCAADYSFYTSFRYDYWGQGTQVTVSS | low polyreactivity
7 | QVQLVESGGGLVQSGGSLRLSCAASGRISYYYAMGWYRQAPGKERELVARISKSGGSTYYADSVKGRFTISRDNAKNTVYLQMNSLKPVVTAVYFCAARWKTGYNYWGEGTQVTVSS | high polyreactivity
8 | QVQLVESGGGLVQSGGSLRLSCAASGRTFRYYAMGWYRQAPGKERELVAAISWNGANTYYADSVKGRFTISRDNAKNTVYLQMNSLKPEDTAVYYCAATYYRWKGYDYWGQGTQVNVSS | high polyreactivity
9 | QVQLVESGGGLVQSGGSLRLSCAASGRTIGAYAMGWYRQAPGKEREFVAAITFGGGPTYYADSVKGRFTISRDNAKNTVYLQMNSLKPEDTAVYYCAKRIDLSFPFARYDYWGQGTQVTVSS | low polyreactivity
10 | QVQLVESGGGLVQSGGSLRLSCAASGSTFTSNTMGCYRQAPGKESEIVAGITWRGGSTYYADSVKGRFTISRDNAKNTVYLQMNSLKPEDTAVYYCAAYGYSKDVWNFYYWGQGTQVTVSS | low polyreactivity
11 | QVQLVESGGGLVQSGGSLRLSCAASGSTVDDNAMGWSRQAPGQVMELVAAIDTSGGSTYADSVKGRFTISRYNAKNTVYLQMNSQKPEDTAVYYCAKPFSSNSWSHGYWGQGTQVTVSS | low polyreactivity
12 | QVQLVESGGGLVQSGGSLRLSCVASGRTFRWYPMGWYRQEPGKERELVATITLNGGSTYYADSVKGRFTISRDNEKNTVYLQMNSLKPEDTAVYYCNRGTNVVRRGVYSFGYDYWGHGTQVTVSS | low polyreactivity
13 | QVQLVESGGGLVQSGGSLRLTCAASGFTFYDYDMGWYRQAPGKERELVATITWSVGRTYYADSVKGRFTISRDTAKNTVYLQMNSLKPEDTAVYYCAADEPDRDYGYWGQGTQVTVSS | low polyreactivity
14 | QVQLVESGGGLVQSGGSLRLTCAASGSIIRYYTMGWYRQAPGKERELVATITQSGGSTYYADSVKGRFTISRDNAKNTVYLQINSLKPEDTAVYYCAALVRRGFRLYGSWGQGTQVTVSS | high polyreactivity
15 | QVQLVESGGGLVQSGGTLRLSCAASGFTFYWYAMGWYRQAPGKEREMVAAITRGGRTYYEDSVKGRFTITRDNAKNTVYLQMNSLKPEDNAVYYCYAYVSWYRTVRTKYDYWGQGTQVTVSS | high polyreactivity
16 | QVQLVESGGGLVQSGGTLRLSCAASGSTFYVNAMGWYRLAPGKERELVAAINYSGGNTYYADSVKGRFTFSRDNAKNTVYLQMNTLKQEDTAVYYCAVDLIIKGYPWWIEDDYWGQGTQVTVSS | high polyreactivity
17 | QVQLVESGGGLVQTGGSLRLSCAASGLTLYVYAMGWYRQAPGKERELVASITSGGSTNYADSVKGRFTISRDNAKNTVYLQMNSLKPEDTAVYYCAAETDTVYDWIAPYVTYDYWGQGTQVTVSS | low polyreactivity
18 | QVQLVESGGGLVQTGGSLRLSCAASGRTFGYNAMGWYRQAPGKERELVASISYSGGSTYYADSVKGRFTISRDNAKNTVYLQMNSLKPEDTAVYYCAAKYWYWQSPSKYYYWGQGTQVTVSS | high polyreactivity
19 | QVQLVESGGGLVQTGGSLRLSCAASGSTYYYYAMGWSRPAPGKERELVAGISWGGGSTYFADSVKGRFTISRDNAMNSVYLQMNSLKPEDTAVYYCNALNPKSYDYWGQGTQVTVSS | low polyreactivity
20 | QVQLVESGGGLVQVGGSLRLSCAASGITLSYYAMGWYRQAPGKERELVASITVSRTSTYYADSVKGRFTISRDNAKNSVYLQMNSLKPEDTAVYYCAAYAYQYRFSGYGYWGQGTQVTVSS | low polyreactivity
21 | QVQLVESGGGLVQVGGSLRLSCDASGITLSYYAMGWYRQAPGKVRELVASITVSRTSTYYADSVKRRFTISRDNAKNTVYLQMNSLKPEDTAVYYCAAYAFQYRFSGYGYWGQGTQVTVSS | low polyreactivity
22 | QVQLVESGGGLVRAGGSLRISCAASGSIFDVNDMGWYRQAPGKERELVASISWNGGSPYYADSVKRRFTISRDNAKNTVYLQLNILNPEDTAVYYCNRSYRRPTSDLYDYWGQGTQVTVSS | low polyreactivity

Row | Sequence | polyreactivity (PSR sort gate)
23 | QVQLVESGGGRVHAGGSHRISCAASGSIFGRYAMGGYRQAPRQDREVVAAISSRGGSTYYADTVKGRFTISRDNAKNTVYLQMTSLKPEDTAFYYCAKENWCTSYYARYDDWGQGTQVTVSS | high polyreactivity
24 | QVQLVESGGGVDQAGGSLRLSCAACGSTIPYYAMGWYRQAPGKERELVAAISASTGSTNYADSVKGRFTISRDNAKNTVYLQMNSLKPEDTAVYYCAKKRSKIKRFGYWGHGTQVTVSS | high polyreactivity
25 | QVQLVESGGGVFQAGGSLRLSCAASGSIYAFNPMGWYRQAPGKETEFVASIRSSTGRTYYADSVKGRFTISRDNAKNTVYLQMNSLKPEDTAVYYCAADSPEKPPRRWYITWPDGYWGQGTQVTVSS | low polyreactivity
26 | QVQLVESGGGVLQAGGSLRLSCAASGSTFAFYAMVRYREAPGKVRELVAAISRSGGRTYYADSVKGRFTISRDNAKNTVYLQMNSLIPEDTAVYYCAAPSGITTGPHREYDYWGLGTQVTVSS | high polyreactivity
27 | QVQLVESGGGVVHAGGSLLLSCAASGRTFFRYVKGWYRQEPGKERELVAAISTRGGSTYYADSVKGRFTISRDNAKNTVYLQMNSLKPEDSAVYYCAADVPTGYDYWGQGTQVTVSS | high polyreactivity
28 | QVQLVESGGGVVQAGASLRLSCAASGNIFYGYAMGWYRQAPGKERELVARINWSGSRTYYADSVKGRFTISRDNAKNTVYLQMNSLKPEDTAVYYCNTSTSRVPGNGDYWGQGSQVTVSS | high polyreactivity
29 | QVQLVESGGGVVQAGGILSLSCAASGFTFATYAMGWYRQAPGKERELVAGITRSGGSTYYADSVKGRFTNSRYNAKNTVYLQMNSLKPEDTAVYYCNKAYGGDKYSGTYDYWGQGTQVTVSS | high polyreactivity
30 | QVQLVESGGGVVQAGGSLRLICAASGLTFDKYTMGRYRQAPGKERELVARISTSGSRTYYADSVKGRFTISRDNAKNTVYLQMNSLIPEDTEVYYCNKDGWIRRRRGYDYWGQGTQVTVSS | high polyreactivity
31 | QVQLVESGGGVVQAGGSLRLRCAASGSTVLGYVMGWYRQAPGKERELVAAITRSGGRTYYADSVQGRFTISRDNAKNTVSLQMNSLKPEETAVYYCAALRGPSFHGYGYWGQGTQVTVSS | high polyreactivity
32 | QVQLVESGGGVVQAGGSLRLSCAASGFIFSVIVMGWYRQAPGKERELVASIPSGGSPYYADSVKGRFTISRDNAKNTVYLQMNSLKPEDTAVYYCAAEFVRSVEHHPGFDYWGQGTQVTVSS | low polyreactivity
33 | QVQLVESGGGVVQAGGSLRLSCAASGFTFARYTMGWYRPAPGKERELVAAISSRGSSTYYADSVKGRFTISRDNAKNTVYLQMNSLKPEDTAVYYCAKAYYTPYGVYVLHYYWGQGTQVTVSS | high polyreactivity
34 | QVQLVESGGGVVQAGGSLRLSCAASGFTFAYYATGWYRQAPGKERELVAAISRSGGSTYYADSVKGRFTISRDNAKNTVYLHMNSLKPEDTAVYYCARDQRKLGADFDSWGQRTQVTVSS | high polyreactivity
35 | QVQLVESGGGVVQAGGSLRLSCAASGFTFGLYAMGWYRQAPGKERELVAVISSSGGSTYYADSVKGRFTISRDNAKNTVYLQMNSLKPEDTAVYYCAAEWHDYKFDVTYDYWGQGTQVTVSS | low polyreactivity
36 | QVQLVESGGGVVQAGGSLRLSCAASGIIFDGNAMGWYRQAPGKERELVAAITSSTDSTYYADSVKGRFTFSRDNAKNTVYLQMNSLKPEDTAVYYCAADYPSKTFDYWGQGTQVTVSS | low polyreactivity
37 | QVQLVESGGGVVQAGGSLRLSCAASGIIFLYNVMGWYRQAPAKERELVAAISWRGGTYYAHSVKGRFTISRDNAKNSVYLQMNSLKPEDTAVYYCNTYPAASLYGFSYPYRYDSWGQGTQVTVSS | high polyreactivity
38 | QVQLVESGGGVVQAGGSLRLSCAASGRIFGPYTMGWYRQAPGKERELVARISRRGGSTYYADSVKGRFTISRDNAKNTVYLQMNSLKPEDTAVYYCARSQAVYDGWFAKFGYWGQGTQVTVSS | low polyreactivity
39 | QVQLVESGGGVVQAGGSLRLSCAASGRIFHYNAMGWYRQAPGKERELVAAISTGGSSNYADSVKGRFTISRDNAKNTVYLQMNSLKPEDTAVYYCAADHPVTYPTSKFDYWGQGTQVTVSS | low polyreactivity
40 | QVQLVESGGGVVQAGGSLRLSCAASGRIFIWYDMGWYRQAPGKERELVAAITQSDDITYYADSVKGRFTISRDNAKNTVYLQMNSLKPEDTAVYYCAARVFETSTPYGYWGQGTQVTVSS | low polyreactivity
41 | QVQLVESGGGVVQAGGSLRLSCAASGRIFRNNAMGWYRQAPGKERVLVAGIRGGGSTYYADSVKGRFTISRDNAKNTVYLQMNSLKPEDTAVYYCNAEASRYVGYGAWQTERDYWGQGTQVTVSS | low polyreactivity
42 | QVQLVESGGGVVQAGGSLRLSCAASGRIFSSYAMGWYRQAPGKERELVAAITSGGSTDYADSVKGRFSISRDNAKNTVYLQMNSLKPEDTAVYYCAKAFLAPWTYSPYYMFYYWGQGTQVTVSS | low polyreactivity
43 | QVQLVESGGGVVQAGGSLRLSCAASGRIFVRNAMGWYRQAPGKERELVAAISRSGGSTSYADSVKGRFTISRDNAKTTVYLQMNSLKPEDTAVYDCAARYARYQYQYDYWGQGTQVTVSS | high polyreactivity

From the nanobody polyreactivity screen of Harvey et al. (2022)
